Assays:
human ENPP3 on cells [1] = target: T1, human ENPP3 on cells (human, UniProt O14638 1-875); assay: cell-based or functional assay
T1 sequence (looked up): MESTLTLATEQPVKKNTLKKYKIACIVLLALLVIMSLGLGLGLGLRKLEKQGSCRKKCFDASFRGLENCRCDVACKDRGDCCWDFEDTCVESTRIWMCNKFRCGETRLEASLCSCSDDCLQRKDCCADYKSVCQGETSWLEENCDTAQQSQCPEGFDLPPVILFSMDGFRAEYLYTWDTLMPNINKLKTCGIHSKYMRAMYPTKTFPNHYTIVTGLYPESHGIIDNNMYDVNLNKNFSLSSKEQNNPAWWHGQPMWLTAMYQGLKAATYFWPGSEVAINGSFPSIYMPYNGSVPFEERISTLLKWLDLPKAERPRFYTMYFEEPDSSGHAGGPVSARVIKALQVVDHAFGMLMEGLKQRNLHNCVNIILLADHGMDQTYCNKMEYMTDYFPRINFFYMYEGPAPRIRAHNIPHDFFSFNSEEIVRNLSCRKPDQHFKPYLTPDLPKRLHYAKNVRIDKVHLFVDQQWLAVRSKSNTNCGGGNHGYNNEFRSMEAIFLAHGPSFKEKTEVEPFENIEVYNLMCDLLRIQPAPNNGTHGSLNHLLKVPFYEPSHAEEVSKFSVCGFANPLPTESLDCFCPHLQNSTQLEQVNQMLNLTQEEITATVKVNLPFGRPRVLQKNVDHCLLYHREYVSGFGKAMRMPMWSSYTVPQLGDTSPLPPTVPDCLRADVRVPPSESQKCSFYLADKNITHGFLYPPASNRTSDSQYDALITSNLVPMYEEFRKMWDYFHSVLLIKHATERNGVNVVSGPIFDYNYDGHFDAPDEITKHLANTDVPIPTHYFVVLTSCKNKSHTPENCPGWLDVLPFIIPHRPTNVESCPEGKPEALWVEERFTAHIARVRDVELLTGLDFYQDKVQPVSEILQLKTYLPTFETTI

human ENPP3 on cells [2] = target: T1, human ENPP3 on cells; assay: cell-based or functional assay; remark: listed apart in the source
human ENPP3 on cells [3] = target: T1, human ENPP3 on cells; assay: flow cytometry on A704 cells
human CD3 on T cells [4] = target: T2, human CD3 on T cells (human, UniProt P07766 23-207); assay: flow cytometry on human T cells, donor 110042593
T2 construct: on T cells it stands in the TCR-CD3 complex; also called human T cells; T cells isolated from healthy human donors

human CD3 on T cells [5] = target: T2, human CD3 on T cells; assay: flow cytometry on human T cells, donor 110048457

T2 sequence (P07766 23-207 limits assumed): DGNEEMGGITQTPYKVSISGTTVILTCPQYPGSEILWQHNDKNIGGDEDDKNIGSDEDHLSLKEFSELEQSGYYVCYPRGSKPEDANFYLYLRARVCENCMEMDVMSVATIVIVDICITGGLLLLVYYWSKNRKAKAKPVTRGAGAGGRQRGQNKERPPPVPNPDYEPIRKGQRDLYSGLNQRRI

B1: NPP3B815 (bispecific antibody, human IgG1, kappa, L234A L235A)
heavy 1: EIVLTQSPATLSASPGERVTLSCSASSSVSYMNWYQQKPGCAPRRWIYDSSKLASGVPARFSGSGSGRDYTLTISSLEPEDFAVYYCQQWSRNPPTFGGGTKVEIKGGGSGGSGGCPPCGGSGGQVQLVQSGAEVKKPGSSVKVSCKASGYTFTRSTMHWVKQAPGQGLEWIGYINPSSAYTNYNQKFQGRVTLTADKSTSTAYMELSSLRSEDTAVYYCASPQVHYDYAGFPYWGCGTLVTVSSEPKSSDKTHTCPPCPAPEAAGGPSVFLFPPKPKDTLMISRTPEVTCVVVSVSHEDPEVKFNWYVDGVEVHNAKTKPREEQYNSTYRVVSVLTVLHQDWLNGKEYKCKVSNKALPAPIEKTISKAKGQPREPQVYTLPPSREEMTKNQVSLWCLVKGFYPSDIAVEWESNGQPENNYKTTPPVLDSDGSFFLYSKLTVDKSRWQQGNVFSCSVMHEALHNHYTQKSLSLSPGK
heavy 2: EVQLVESGGGRVKPGGSLRLSCAASGFTFSDYSMNWVRQAPGKGLEWVSSISSISSYVKYADSVKGRFTMSRDNAKNSLFLQMNSLRDEDMAVYYCARGHYFDYWGQGTLVTVSSASTKGPSVFPLAPSSKSTSGGTAALGCLVKDYFPEPVTVSWNSGALTSGVHTFPAVLQSSGLYSLSSVVTVPSSSLGTQTYICNVNHKPSNTKVDKKVEPKSCDKTHTCPPCPAPEAAGGPSVFLFPPKPKDTLMISRTPEVTCVVVSVSHEDPEVKFNWYVDGVEVHNAKTKPREEQYNSTYRVVSVLTVLHQDWLNGKEYKCKVSNKALPAPIEKTISKAKGQPREPQVYTLPPSREEMTKNQVSLSCAVKGFYPSDIAVEWESNGQPENNYKTTPPVLDSDGSFFLVSKLTVDKSRWQQGNVFSCSVMHEALHNRFTQKSLSLSPGK
light: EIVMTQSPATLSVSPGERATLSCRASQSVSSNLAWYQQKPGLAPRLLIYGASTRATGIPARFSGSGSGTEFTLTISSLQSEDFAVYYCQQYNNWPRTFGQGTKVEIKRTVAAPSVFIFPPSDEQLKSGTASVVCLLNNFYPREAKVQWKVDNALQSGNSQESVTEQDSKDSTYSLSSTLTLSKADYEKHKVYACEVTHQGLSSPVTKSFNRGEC
notes: HC2 carries the NPP3B56 Fab and the hole T366S, L368A, Y407V; Fc with L234A, L235A, D265S; The CPPC linker cysteines form disulfides with engineered Cys at L42 and H105 (Chothia); also called NPP3B56×CD3B2030-N106A; ENPP3×CD3 (NPP3B815)
T-cell activation (Flow Cytometry) EC50; A704; E:T 3:1 (human ENPP3 on cells [1]): 11 pM | T-cell activation (Flow Cytometry) EC50; HepG2; E:T 3:1 (human ENPP3 on cells [1]): 41 pM | T-cell activation (Flow Cytometry) EC50; VMRCRCW; E:T 3:1 (human ENPP3 on cells [1]): 18 pM | Tumor cell killing (Incucyte) EC50; A704; E:T 3:1 (human ENPP3 on cells [1]): 30 pM | Tumor cell killing (Incucyte) EC50; HepG2; E:T 3:1 (human ENPP3 on cells [1]): 530 pM | Tumor cell killing (Incucyte) EC50; TUHR4TKB; E:T 3:1 (human ENPP3 on cells [1]): 50 pM | Tumor cell killing (Incucyte) EC50; TUHR10TKB; E:T 3:1 (human ENPP3 on cells [1]): 20 pM | Tumor cell killing (Incucyte) EC50; VMRCRCW; E:T 3:1 (human ENPP3 on cells [1]): 130 pM | killing EC50 @ 72 hrs; A704; T-cell donor 110040278; E:T 1:1 (human ENPP3 on cells [2]): 75 pM | killing EC50 @ 72 hrs; A704; T-cell donor 110040278; E:T 3:1 (human ENPP3 on cells [2]): 48.4 pM | killing EC50 @ 72 hrs; A704; T-cell donor 110042496; E:T 1:1 (human ENPP3 on cells [2]): 132 pM | killing EC50 @ 72 hrs; A704; T-cell donor 110042496; E:T 3:1 (human ENPP3 on cells [2]): 69.6 pM | killing EC50 @ 72 hrs; A704; T-cell donor 110042593; E:T 1:1 (human ENPP3 on cells [2]): 114 pM | killing EC50 @ 72 hrs; A704; T-cell donor 110042593; E:T 3:1 (human ENPP3 on cells [2]): 33.6 pM | killing EC50 @ 72 hrs; A704; T-cell donor 110044049; E:T 3:1 (human ENPP3 on cells [2]): 52.4 pM | killing EC50 @ 72 hrs; A704; T-cell donor 888668965; E:T 3:1 (human ENPP3 on cells [2]): 45.4 pM | killing EC50 @ 72 hrs; VMRCRCW; T-cell donor 110040278; E:T 1:1 (human ENPP3 on cells [2]): 243 pM | killing EC50 @ 72 hrs; VMRCRCW; T-cell donor 110040278; E:T 1:3 (human ENPP3 on cells [2]): 456 pM | killing EC50 @ 72 hrs; VMRCRCW; T-cell donor 110040278; E:T 3:1 (human ENPP3 on cells [2]): 92.3 pM | killing EC50 @ 72 hrs; VMRCRCW; T-cell donor 110042496; E:T 1:1 (human ENPP3 on cells [2]): 465 pM | killing EC50 @ 72 hrs; VMRCRCW; T-cell donor 110042496; E:T 3:1 (human ENPP3 on cells [2]): 128 pM | killing EC50 @ 72 hrs; VMRCRCW; T-cell donor 110042593; E:T 1:1 (human ENPP3 on cells [2]): 225 pM | killing EC50 @ 72 hrs; VMRCRCW; T-cell donor 110042593; E:T 3:1 (human ENPP3 on cells [2]): 79.5 pM | killing EC50 @ 72 hrs; VMRCRCW; T-cell donor 110044049; E:T 1:1 (human ENPP3 on cells [2]): 151 pM | killing EC50 @ 72 hrs; VMRCRCW; T-cell donor 110044049; E:T 1:3 (human ENPP3 on cells [2]): 226 pM | killing EC50 @ 72 hrs; VMRCRCW; T-cell donor 110044049; E:T 3:1 (human ENPP3 on cells [2]): 115 pM | killing EC50 @ 72 hrs; VMRCRCW; T-cell donor 110048457; E:T 1:1 (human ENPP3 on cells [2]): 177 pM | killing EC50 @ 72 hrs; VMRCRCW; T-cell donor 110048457; E:T 1:3 (human ENPP3 on cells [2]): 276 pM | killing EC50 @ 72 hrs; VMRCRCW; T-cell donor 110048457; E:T 3:1 (human ENPP3 on cells [2]): 372 pM | killing EC50 @ 72 hrs; VMRCRCW; T-cell donor 888668965; E:T 1:1 (human ENPP3 on cells [2]): 273 pM | killing EC50 @ 72 hrs; VMRCRCW; T-cell donor 888668965; E:T 1:3 (human ENPP3 on cells [2]): 469 pM | killing EC50 @ 72 hrs; VMRCRCW; T-cell donor 888668965; E:T 3:1 (human ENPP3 on cells [2]): 156 pM | killing EC50 @ 120 hrs; A704; T-cell donor 110040278; E:T 1:1 (human ENPP3 on cells [2]): 41 pM | killing EC50 @ 120 hrs; A704; T-cell donor 110040278; E:T 1:3 (human ENPP3 on cells [2]): 149 pM | killing EC50 @ 120 hrs; A704; T-cell donor 110042496; E:T 1:1 (human ENPP3 on cells [2]): 73 pM | killing EC50 @ 120 hrs; A704; T-cell donor 110042496; E:T 1:3 (human ENPP3 on cells [2]): 191 pM | killing EC50 @ 120 hrs; A704; T-cell donor 110042593; E:T 1:1 (human ENPP3 on cells [2]): 48 pM | killing EC50 @ 120 hrs; A704; T-cell donor 110042593; E:T 1:3 (human ENPP3 on cells [2]): 106 pM | killing EC50 @ 120 hrs; A704; T-cell donor 110044049; E:T 1:1 (human ENPP3 on cells [2]): 125 pM | killing EC50 @ 120 hrs; A704; T-cell donor 888668965; E:T 1:3 (human ENPP3 on cells [2]): 163 pM | killing EC50 @ 120 hrs; VMRCRCW; T-cell donor 110040278; E:T 1:1 (human ENPP3 on cells [2]): 264 pM | killing EC50 @ 120 hrs; VMRCRCW; T-cell donor 110040278; E:T 1:3 (human ENPP3 on cells [2]): 332 pM | killing EC50 @ 120 hrs; VMRCRCW; T-cell donor 110042496; E:T 1:1 (human ENPP3 on cells [2]): 454 pM | killing EC50 @ 120 hrs; VMRCRCW; T-cell donor 110042496; E:T 1:3 (human ENPP3 on cells [2]): 500 pM | killing EC50 @ 120 hrs; VMRCRCW; T-cell donor 110042593; E:T 1:1 (human ENPP3 on cells [2]): 218 pM | killing EC50 @ 120 hrs; VMRCRCW; T-cell donor 110042593; E:T 1:3 (human ENPP3 on cells [2]): 485 pM | killing EC50 @ 120 hrs; VMRCRCW; T-cell donor 110044049; E:T 1:1 (human ENPP3 on cells [2]): 216 pM | killing EC50 @ 120 hrs; VMRCRCW; T-cell donor 110044049; E:T 1:3 (human ENPP3 on cells [2]): 337 pM | killing EC50 @ 120 hrs; VMRCRCW; T-cell donor 110048457; E:T 1:1 (human ENPP3 on cells [2]): 210 pM | killing EC50 @ 120 hrs; VMRCRCW; T-cell donor 110048457; E:T 1:3 (human ENPP3 on cells [2]): 267 pM | killing EC50 @ 120 hrs; VMRCRCW; T-cell donor 888668965; E:T 1:1 (human ENPP3 on cells [2]): 345 pM | killing EC50 @ 120 hrs; VMRCRCW; T-cell donor 888668965; E:T 1:3 (human ENPP3 on cells [2]): 379 pM | EC50 (human ENPP3 on cells [3]): 1010 pM | EC50 (human CD3 on T cells [4]): 146000 pM | EC50 (human CD3 on T cells [5]): 132000 pM

Reference: patent US20250163182A1 (Janssen / Centocor, published 2025)
